# Test results reported in publication PMC8092243, “Cryo-EM Structures of CusA Reveal a Mechanism of Metal-Ion Export” (mBio, 2021).
# B1: CusA heavy-metal efflux pump (natural protein, E. coli)
# chain: MIEWIIRRSVANRFLVLMGALFLSIWGTWTIINTPVDALPDLSDVQVIIKTSYPGQAPQIVENQVTYPLTTTMLSVPGAKTVRGFSQFGDSYVYVIFEDGTDPYWARSRVLEYLNQVQGKLPAGVSAELGPDATGVGWIYEYALVDRSGKHDLADLRSLQDWFLKYELKTIPDVAEVASVGGVVKEYQVVIDPQRLAQYGISLAEVKSALDASNQEAGGSSIELAEAEYMVRASGYLQTLDDFNHIVLKASENGVPVYLRDVAKVQIGPEMRRGIAELNGEGEVAGGVVILRSGKNAREVIAAVKDKLETLKSSLPEGVEIVTTYDRSQLIDRAIDNLSGKLLEEFIVVAVVCALFLWHVRSALVAIISLPLGLCIAFIVMHFQGLNANIMSLGGIAIAVGAMVDAAIVMIENAHKRLEEWQHQHPDATLDNKTRWQVITDASVEVGPALFISLLIITLSFIPIFTLEGQEGRLFGPLAFTKTYAMAGAALLAIVVIPILMGYWIRGKIPPESSNPLNRFLIRVYHPLLLKVLHWPKTTLLVAALSVLTVLWPLNKVGGEFLPQINEGDLLYMPSTLPGISAAEAASMLQKTDKLIMSVPEVARVFGKTGKAETATDSAPLEMVETTIQLKPQEQWRPGMTMDKIIEELDNTVRLPGLANLWVPPIRNRIDMLSTGIKSPIGIKVSGTVLADIDAMAEQIEEVARTVPGVASALAERLEGGRYINVEINREKAARYGMTVADVQLFVTSAVGGAMVGETVEGIARYPINLRYPQSWRDSPQALRQLPILTPMKQQITLADVADIKVSTGPSMLKTENARPTSWIYIDARDRDMVSVVHDLQKAIAEKVQLKPGTSVAFSGQFELLERANHKLKLMVPMTLMIIFVLLYLAFRRVGEALLIISSVPFALVGGIWLLWWMGFHLSVATGTGFIALAGVAAEFGVVMLMYLRHAIEAVPSLNNPQTFSEQKLDEALYHGAVLRVRPKAMTVAVIIAGLLPILWGTGAGSEVMSRIAAPMIGGMITAPLLSLFIIPAAYKLMWLHRHRVRK
# notes: CusA, heavy-metal efflux (HME) RND pump of Escherichia coli; the cusA gene cloned into pET15b; the cryo-EM models incorporate residues Ile-5 to Trp-1039; Homotrimer embedded in lipid nanodiscs, in the presence of Cu(I); The membrane scaffold protein MSP 1E3D1 of the nanodisc is not a studied partner; also called CusA membrane protein; CusA trimer
# Target: the molecule itself
# Assay: cryo-EM structure; CusA in lipid nanodiscs (MSP 1E3D1, E. coli total extract lipid), 0.7 mg/ml (2 uM), incubated with 20 uM Cu(I), 20 mM HEPES-NaOH pH 7.0; four trimer classes (EEE, EEB, EBB, BBB) from one sample
protein,measurement,value
B1,stoichiometry N,3
